Test results as given in the supplement of paper PMC10126150.
± gives the standard deviation of the averaged measurements.

System: ATP
Assay: switch fluorescence ratio, 500 uM ATP over buffer (Cy3 cluster intensity, sum of 5 cycles each) (fold (ratio)); higher = stronger signal-on switching upon ATP binding; sequences stand for … in TCGTCGGCAGCGTCAGATGTGTATAAGAGACAGTTTTTTTTTTTTTTTTTTTTTTTTT…TC
Conditions: aptamer strand: ATP DNA aptamer (quencher-CACCTGGGGGAGTATTGCGGAGGAAGG + anchor), 100 nM annealed; ATP concentration: 500 uM
Method in brief: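 Clusters with intensities outside 100-1000 RFU were excluded. The remaining Cy3-labelled switching-strand clusters on a modified Illumina MiSeq flow-cell had been annealed to 100 nM quencher-labelled ATP aptamer and imaged in selection buffer, then after 15 min with 500 uM ATP at 22 °C, for five cycles separated by NaOH stripping and re-annealing. The fluorescence ratio, averaged per switch-domain sequence, is each cluster's summed target-cycle Cy3 intensity over its summed buffer-cycle Cy3 intensity.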
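Further: ATP exposure 15 min at 22 °C before imaging.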

Sequence | switch fluorescence ratio
AATCATTGTA | 1.01 ± 0.039
AATCCCGCCA | 1.19 ± 0.034
AATCCGGGGC | 2.35 ± 1.6
AATCCTAAGG | 1.02 ± 0.048
AATCCTATCA | 1.02 ± 0.014
AATCGCAACG | 1.02 ± 0.022
AATCGCTGGG | 0.988 ± 0.022
AATCGGGAA | 0.9868 ± 0.0041
AATCGGGTAT | 0.984 ± 0.027
AATCGGTCAC | 0.998 ± 0.025
AATCGGTCTG | 1.03 ± 0.02
AATCGGTGCG | 0.986 ± 0.049
AATCGTATCC | 1.01 ± 0.029
AATCGTCAGG | 1.01 ± 0.012
AATCTAATTG | 1.002 ± 0.0038
AATCTGCTCG | 0.9864 ± 0.002
AATCTGGGGC | 0.968 ± 0.011
AATCTGGTGT | 1.02 ± 0.054
AATCTTGAGG | 1.01 ± 0.028
AATCTTTATT | 1.008 ± 0.0018
AATGAAGGCA | 1.005 ± 0.0049
AATGAATGAG | 0.971 ± 0.022

Sequence | switch fluorescence ratio
AATGAATTGT | 1.02 ± 0.022
AATGAGTATA | 0.9915 ± 0.007
AATGCCAGGG | 1.02 ± 0.026
AATGCCTGGT | 0.984 ± 0.022
AATGCGGGGA | 1.03 ± 0.017
AATGCGGTAT | 1.01 ± 0.023
AATGCGTGTG | 1.12 ± 0.15
AATGCTGTTG | 0.991 ± 0.02
AATGCTTGTC | 0.952 ± 0.048
AATGCTTTGG | 1.007 ± 0.0095
AATGGAAGGG | 1.01 ± 0.013
AATGGAGATT | 0.985 ± 0.031
AATGGATGTT | 1.05 ± 0.12
AATGGCAGGA | 0.998 ± 0.016
AATGGCAGTC | 1.03 ± 0.05
AATGGCCTA | 1.03 ± 0.046
AATGGCGGCC | 1.03 ± 0.039
AATGGCTGTG | 0.972 ± 0.033
AATGGGAAGG | 0.971 ± 0.028
AATGGGACTT | 1.02 ± 0.015
AATGGGATAC | 1.16 ± 0.027
AATGGGGGAC | 1.001 ± 0.0025

Sequence | switch fluorescence ratio
AATGGGGGAG | 0.981 ± 0.0099
AATGGGGGCA | 1.007 ± 0.0076
AATGGGGTAC | 1.009 ± 0.0087
AATGGGTGAG | 0.982 ± 0.014
AATGGTAAAC | 1.04 ± 0.018
AATGGTGAAT | 0.996 ± 0.03
AATGGTGCGA | 0.975 ± 0.012
AATGGTGTGT | 1.01 ± 0.018
AATGGTTGTG | 1 ± 0.022
AATGTAAGGT | 1.012 ± 0.006
AATGTACTTT | 1.03 ± 0.032
AATGTATTTT | 1.01 ± 0.029
AATGTCGCGA | 1 ± 0.025
AATGTGCCGT | 1.07 ± 0.04
AATGTGGCTA | 1.01 ± 0.037
AATGTGGGTA | 0.982 ± 0.015
AATGTGGTAA | 0.959 ± 0.043
AATGTGGTTG | 0.997 ± 0.013
AATGTGTTGT | 0.998 ± 0.011
AATGTTACGC | 1.02 ± 0.058
AATGTTAGGC | 1.02 ± 0.034
AATGTTATAG | 1.008 ± 0.00014

Sequence | switch fluorescence ratio
AATGTTATGG | 0.9801 ± 0.0031
AATGTTATTG | 0.99833 ± 0.00099
AATTAAGGCC | 0.992 ± 0.026
AATTAATGGA | 0.997 ± 0.036
AATTACCATC | 1.01 ± 0.017
AATTACGGGT | 1 ± 0.021
AATTACTTTA | 1.03 ± 0.029
AATTAGACAG | 0.9912 ± 0.0047
AATTAGAGTA | 0.994 ± 0.068
AATTAGATAC | 1.12 ± 0.074
AATTAGGTGC | 1.14 ± 0.077
AATTAGGTGG | 1.01 ± 0.039
AATTAGTGGG | 0.995 ± 0.025
AATTAGTTCG | 0.98 ± 0.02
AATTATGGGG | 0.999 ± 0.032
AATTCAGGGG | 1.07 ± 0.069
AATTCGGGGG | 1.04 ± 0.054
AATTCGGGGT | 1.005 ± 0.0024
AATTCGTATC | 1.008 ± 0.0024
